The test addresses T1, Eptatretus stoutii FIL-Alpha including a polyhistidine tag (Eptatretus stoutii, UniProt Q90501 1-643).
T1 construct: Recombinant protein expressed in E. coli; also called alpha protein; hagfish intermediate filament alpha protein
T1 sequence: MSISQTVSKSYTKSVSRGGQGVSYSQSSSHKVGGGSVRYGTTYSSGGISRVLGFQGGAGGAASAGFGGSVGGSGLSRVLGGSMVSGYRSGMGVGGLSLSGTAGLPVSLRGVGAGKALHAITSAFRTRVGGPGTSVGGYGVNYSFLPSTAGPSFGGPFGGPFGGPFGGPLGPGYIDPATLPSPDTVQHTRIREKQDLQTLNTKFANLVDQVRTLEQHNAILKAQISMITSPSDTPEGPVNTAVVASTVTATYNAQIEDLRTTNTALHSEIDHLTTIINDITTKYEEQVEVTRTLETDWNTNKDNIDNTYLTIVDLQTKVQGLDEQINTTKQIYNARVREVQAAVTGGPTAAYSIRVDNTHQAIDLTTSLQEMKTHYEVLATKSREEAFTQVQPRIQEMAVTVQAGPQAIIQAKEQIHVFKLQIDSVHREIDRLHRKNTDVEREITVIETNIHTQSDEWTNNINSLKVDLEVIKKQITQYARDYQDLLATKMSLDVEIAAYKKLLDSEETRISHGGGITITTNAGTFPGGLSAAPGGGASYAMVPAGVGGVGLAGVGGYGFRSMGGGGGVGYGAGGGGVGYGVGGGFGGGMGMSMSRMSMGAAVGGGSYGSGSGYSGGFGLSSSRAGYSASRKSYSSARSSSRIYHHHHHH
The experiment in a line: filament/thread self-assembly of refolded recombinant His-tagged proteins; filaments observed by microscopy.

B1: Eptatretus stoutii FIL-Gamma including a polyhistidine tag (other)
chain: MASHSSVSYRSVRTGGTSAMIGSSGYGGSSSSRAMGLGMGAAGLSMGGGSFRVGSAGIGGMGISSGIGGMGISSRAGGMSAYGGAASGGAGGFVSGGVPMLGYGGGAGGFIGGVSPGIMASPAFTAGRAITSAGMSGVVGTLGPAGGMVPSLVSRDEVKNILGTLNQRLASYVDKVRQLTIENETMEEELKNLTGGVPMSPDSTVNLENVETQVTEMLTEVSNLTLERVRLEIDVDHLRATADEIKSKYEFELGVRMQLETDIANMKRDLEAANDMRVDLDSKFNFLTEELTFQRKTQMEELNTLKQQFGRLGPVQTSVIELDNVKSVNLTDALNVMREEYQQVVTKNVQEAETYCKMQIDQIQGISTQTTEQISILDKEINTLEKELQPLNVEYQRLLTTYQTLGDRLTDLQNRESIDLVQFQNTYTRYEQEIEGNQVDLQRQLVTYQQLLDVKTALDAEIATYKKLLEGQELMVRTAMADDFAHATVVRSGTLGGASSSSVGYGASSTTLGAISGGYSTGGGASYSAGAGGASYSAGAGGASYGVGGGYSGGSSAMMEGSSSGGHSMYSSSSMKRSSSKSASASAGGYGTSGHDSTIILQQHHHHHH
notes: also called gamma protein; hagfish intermediate filament gamma protein
As for B1, the binding result is “binds”.

For the origin of these results see US20190002529A1 (GOVERNMENT OF THE UNITED STATES OF AMERICA AS REPRESENTED …, published 2019).
